Molecular target: recombinant soluble trimeric gp140 from the clade A Ugandan HIV-1 field isolate 94UG018 (HIV-1 clade A isolate 94UG018)
Assay: SEC; final gel filtration on an SD200 column equilibrated with PBS; fractions corresponding to the gp140 trimer collected and pooled

## recombinant soluble trimeric gp140 from the clade A Ugandan HIV-1 field isolate 94UG018 (natural protein)
  stoichiometry N: 3
